Here are results for 4 molecules from article PMC10397247.

For one test, the target named is T1, 4H2931-bH.
T1 chain: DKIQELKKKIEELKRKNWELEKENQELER
Briefly: two-hybrid library CCNG1.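 Also: natural log of median RNA to DNA barcode read ratio; higher means stronger binding.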

Another test concerns the target T2, 4H3364-bH.
T2 chain: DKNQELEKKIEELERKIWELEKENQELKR
Briefly: two-hybrid library CCNG1.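 Also: natural log of median RNA to DNA barcode read ratio; higher means stronger binding.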

The target of a further test is T3, 4H717-bA.
T3 chain: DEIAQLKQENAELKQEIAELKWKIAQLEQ
Briefly: two-hybrid library CCNG1.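 Also: natural log of median RNA to DNA barcode read ratio; higher means stronger binding.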

A further test concerns the target T4, 4H949-bH.
T4 chain: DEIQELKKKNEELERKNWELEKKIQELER
Briefly: two-hybrid library CCNG1.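 Also: natural log of median RNA to DNA barcode read ratio; higher means stronger binding.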

The target of another test is T5, 4H2859-bH.
T5 chain: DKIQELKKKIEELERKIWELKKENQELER
In words: two-hybrid library CCNG1.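 Also: natural log of median RNA to DNA barcode read ratio; higher means stronger binding.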

The target in a further test is T6, 4H2518-bH.
T6 chain: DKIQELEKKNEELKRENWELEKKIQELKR
Briefly: two-hybrid library CCNG1.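 Also: natural log of median RNA to DNA barcode read ratio; higher means stronger binding.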

In another test the target is T7, 4H730-bH.
T7 chain: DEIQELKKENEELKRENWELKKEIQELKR
In words: two-hybrid library CCNG1.

The target of another test is T8, 4H264-bH.
T8 chain: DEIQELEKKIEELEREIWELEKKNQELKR
In words: two-hybrid library CCNG1.

The target of another test is T9, 4H3041-bH.
T9 chain: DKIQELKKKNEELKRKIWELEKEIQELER
In words: two-hybrid library CCNG1.

A further test has as its target T10, 4H3381-bH.
T10 chain: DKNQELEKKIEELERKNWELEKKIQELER
In words: two-hybrid library CCNG1.

A further test has as its target T11, 4H2760-bH.
T11 chain: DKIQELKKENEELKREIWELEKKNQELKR
In words: two-hybrid library CCNG1.

The target in a further test is T12, 4H3297-bH.
T12 chain: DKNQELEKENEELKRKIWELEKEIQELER
In words: two-hybrid library CCNG1.

A further test deals with T13, 4H2585-bH.
T13 chain: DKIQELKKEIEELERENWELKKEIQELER
In words: two-hybrid library CCNG1.

In another test the target is T14, 4H3974-bA.
T14 chain: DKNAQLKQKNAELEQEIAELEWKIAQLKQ
In words: two-hybrid library CCNG1.

The target in a further test is T15, 4H584-bH.
T15 chain: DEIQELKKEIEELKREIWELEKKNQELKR
Briefly: two-hybrid library CCNG1.

A further test deals with T16, 4H796-bH.
T16 chain: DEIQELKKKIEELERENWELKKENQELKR
In words: two-hybrid library CCNG1.

The next test concerns the target T17, 4H56-bH.
T17 chain: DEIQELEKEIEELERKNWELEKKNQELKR
Briefly: two-hybrid library CCNG1.

The next test has as its target T18, 4H349-bH.
T18 chain: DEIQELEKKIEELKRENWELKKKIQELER
Briefly: two-hybrid library CCNG1.

In a further test the target is T19, 4H932-bH.
T19 chain: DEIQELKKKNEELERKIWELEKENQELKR
In words: two-hybrid library CCNG1.

Another test deals with T20, P10-AA.
T20 chain: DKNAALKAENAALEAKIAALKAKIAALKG
Briefly: two-hybrid library CCmax. The conditions noted are these: mean of both orientations.

Another test addresses T21, O4-AA.
T21 chain: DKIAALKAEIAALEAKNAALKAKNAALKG
In words: two-hybrid library CCmax. The conditions noted are these: mean of both orientations.

For a further test, the target named is T22, O13-AA.
T22 chain: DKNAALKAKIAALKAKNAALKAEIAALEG
In words: two-hybrid library CCmax.

The next test addresses T23, O14-AA.
T23 chain: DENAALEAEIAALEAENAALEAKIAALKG
Briefly: two-hybrid library CCmax. The note with it: mean of both orientations.

Another test deals with T24, O7-AA.
T24 chain: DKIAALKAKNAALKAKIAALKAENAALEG
In words: two-hybrid library CCmax. The conditions noted are these: mean of both orientations.

The target in another test is T25, O8-AA.
T25 chain: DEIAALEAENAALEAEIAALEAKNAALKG
Briefly: two-hybrid library CCmax. The conditions noted are these: mean of both orientations.

In another test the target is T26, O2-AA.
T26 chain: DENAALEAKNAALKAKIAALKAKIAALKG
In words: two-hybrid library CCmax. The conditions noted are these: mean of both orientations.

A further test addresses T27, O3-AA.
T27 chain: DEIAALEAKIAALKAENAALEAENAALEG
In words: two-hybrid library CCmax. The conditions noted are these: mean of both orientations.

The target of another test is T28, O6-AA.
T28 chain: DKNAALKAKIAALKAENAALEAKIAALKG
In words: two-hybrid library CCmax. The note with it: mean of both orientations.

For a further test, the target named is T29, O5-AA.
T29 chain: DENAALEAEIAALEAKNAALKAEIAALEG
Briefly: two-hybrid library CCmax. The note with it: mean of both orientations.

For another test, the target named is T30, P9-AA.
T30 chain: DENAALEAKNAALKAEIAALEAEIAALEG
Briefly: two-hybrid library CCmax. The conditions noted are these: mean of both orientations.

A further test deals with T31, O14-bA.
T31 chain: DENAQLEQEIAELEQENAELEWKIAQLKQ
Briefly: two-hybrid library CCNG1.

The target in another test is T32, 4H968-bN.
T32 chain: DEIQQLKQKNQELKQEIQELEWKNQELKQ
Briefly: two-hybrid library CCNG1.

A further test deals with T33, 4H967-bN.
T33 chain: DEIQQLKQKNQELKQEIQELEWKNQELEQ
In words: two-hybrid library CCNG1.

In the next test the target is T34, 4H918-bN.
T34 chain: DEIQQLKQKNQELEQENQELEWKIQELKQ
In words: two-hybrid library CCNG1.

For another test, the target named is T35, 4H953-bN.
T35 chain: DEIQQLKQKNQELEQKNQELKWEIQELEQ
Briefly: two-hybrid library CCNG1.

For the next test, the target named is T36, P5A-bS.
T36 chain: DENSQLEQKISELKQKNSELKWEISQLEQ
Briefly: two-hybrid library CCNG1.

For another test, the target named is T37, P9A-bS.
T37 chain: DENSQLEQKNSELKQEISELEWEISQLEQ
Briefly: two-hybrid library CCNG1.

The target of a further test is T38, P6A-bS.
T38 chain: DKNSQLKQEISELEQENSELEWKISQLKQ
Briefly: two-hybrid library CCNG1.

Another test addresses T39, P6bHq.
T39 chain: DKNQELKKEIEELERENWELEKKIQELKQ
In words: two-hybrid library CCNG1.

Another test concerns the target T40, P7A-bS.
T40 chain: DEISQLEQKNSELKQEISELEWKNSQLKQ
Briefly: two-hybrid library CCNG1.

The next test has as its target T41, P8A-bS.
T41 chain: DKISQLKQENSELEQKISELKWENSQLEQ
In words: two-hybrid library CCNG1.

B1: 4H2518-bH (peptide)
chain: DKIQELEKKNEELKRENWELEKKIQELKR
On to B1, for which the interaction score with 4H2931-bH was -0.584; with 4H3364-bH, 0.178; with 4H717-bA it was -0.768; with 4H949-bH it was 0.12; in the test with 4H2859-bH, -0.0624; with 4H2518-bH, 1. The interaction score with 4H730-bH is 0.0916; with 4H264-bH, -1.77; with 4H3041-bH, 0.765; with 4H3381-bH it was 0.567; with 4H2760-bH, -0.186; with 4H3297-bH it was 0.251. Also, the interaction score with 4H2585-bH is 0.0674; in the test with 4H3974-bA, 0.345; with 4H584-bH, 0.647; in the test with 4H796-bH, 0.388; with 4H56-bH it was -1.35; with 4H349-bH it was -1.75. For the same molecule, the interaction score in the test with 4H932-bH is 0.604.

B2: O13-AA (peptide)
chain: DKNAALKAKIAALKAKNAALKAEIAALEG
For B2, the interaction score with P10-AA is -1.54; with O4-AA, -1.61; with O13-AA, -1.69; with O14-AA it was 2.19; with O7-AA, -1.54; with O8-AA it was 1.18. Further, the interaction score with O2-AA was -1.56; in the test with O3-AA, -1.86; with O6-AA, 1.5; with O5-AA it was -0.257; in the test with P9-AA it was -1.16.

B3: 4H918-bN (peptide)
chain: DEIQQLKQKNQELEQENQELEWKIQELKQ
In the case of B3, the interaction score was -0.665 with O14-bA; -0.218 in the test with 4H968-bN; -0.522 with 4H967-bN; -0.715 with 4H918-bN; 0.301 with 4H953-bN.

B4: P5A-bS (peptide)
chain: DENSQLEQKISELKQKNSELKWEISQLEQ
On to B4, for which the interaction score with P5A-bS is -0.799; with P9A-bS it was -0.973; with P6A-bS, 0.815; with P6bHq, 1.33; in the test with P7A-bS, -1.3; with P8A-bS it was -1.1.
